Measurements as given in article PMC3334968, “Development of a Tetrameric Streptavidin Mutein with Reversible Biotin Binding Capability: Engineering a Mobile Loop as an Exit Door for Biotin” (PLoS ONE, 2012).

Target: the molecule itself
Assay: SDS-PAGE of unboiled samples; oligomeric state in SDS-PAGE, samples not boiled, without biotin, with or without 0.7 M β-mercaptoethanol

B1: 8-aa-loop-H127C mutein (streptavidin) (natural protein, UniProt P22629 25-183, looked up)
chain: DPSKDSKAQVSAAEAGITGTWYNQLGSTFIVTAGADGALTGTYESAVGNAESRYVLTGRYDSAPATDGSGTALGWTVAWKNNYRNAHSATTWSGQYVGGAEARINTQWLLTSGDSSNGSDGSTLVGCDTFTKVKPSAASIDAAKKAGVNNGNPLDAVQQ
modifications: disulfide bond between the Cys-127 residues of adjacent subunits
notes: streptavidin; loop7-8 (residues 114-121) replaced and H127C added; SDS-PAGE was done without biotin; also called MH127C; 8-aa-loop-H127 mutein; source: B. subtilis WB800, secreted, purified from culture supernatant (biotin-agarose)
stoichiometry N: 4
